Results reported in PMC3907796.

Target: BD-G72(95-153) (UniProt P59103)
Test: two-hybrid; β-galactosidase activity of AH109 transformants grown in SD/-2 broth at 30 °C, normalised to yeast with the AD and BD tags alone

Sequence of BD-G72(95-153) (P59103 95-153): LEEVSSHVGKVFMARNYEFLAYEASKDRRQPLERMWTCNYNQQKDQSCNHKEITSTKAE

With “AD-DAO (D-amino acid oxidase N-terminally tagged with the activation domain) (from UniProt P14920 1-347) (enzyme)” the β-galactosidase activity as percent of AD-DAO/BD-G72 was 38% and the β-galactosidase activity relative to the BD/AD tag baseline was 1.81 fold.
